Measured values as given in the supplement of paper PMC10065799, “High-throughput profiling of sequence recognition by tyrosine kinases and SH2 domains using bacterial peptide display” (eLife, 2023).

Assays:
AncSZ = experiment: phosphorylation enrichment, bacterial display (enrichment ratio); higher = better substrate or ligand; peptides without Tyr show the background
EPHB1 = EPHB1 (UniProt P54762); experiment: as above
EPHB2 = EPHB2 (UniProt P29323); experiment: as above
FGFR1 = FGFR1 (UniProt P11362); experiment: as above
FGFR3 = FGFR3 (UniProt P22607); experiment: as above
Chain of FGFR3 (P22607 whole entry, looked up): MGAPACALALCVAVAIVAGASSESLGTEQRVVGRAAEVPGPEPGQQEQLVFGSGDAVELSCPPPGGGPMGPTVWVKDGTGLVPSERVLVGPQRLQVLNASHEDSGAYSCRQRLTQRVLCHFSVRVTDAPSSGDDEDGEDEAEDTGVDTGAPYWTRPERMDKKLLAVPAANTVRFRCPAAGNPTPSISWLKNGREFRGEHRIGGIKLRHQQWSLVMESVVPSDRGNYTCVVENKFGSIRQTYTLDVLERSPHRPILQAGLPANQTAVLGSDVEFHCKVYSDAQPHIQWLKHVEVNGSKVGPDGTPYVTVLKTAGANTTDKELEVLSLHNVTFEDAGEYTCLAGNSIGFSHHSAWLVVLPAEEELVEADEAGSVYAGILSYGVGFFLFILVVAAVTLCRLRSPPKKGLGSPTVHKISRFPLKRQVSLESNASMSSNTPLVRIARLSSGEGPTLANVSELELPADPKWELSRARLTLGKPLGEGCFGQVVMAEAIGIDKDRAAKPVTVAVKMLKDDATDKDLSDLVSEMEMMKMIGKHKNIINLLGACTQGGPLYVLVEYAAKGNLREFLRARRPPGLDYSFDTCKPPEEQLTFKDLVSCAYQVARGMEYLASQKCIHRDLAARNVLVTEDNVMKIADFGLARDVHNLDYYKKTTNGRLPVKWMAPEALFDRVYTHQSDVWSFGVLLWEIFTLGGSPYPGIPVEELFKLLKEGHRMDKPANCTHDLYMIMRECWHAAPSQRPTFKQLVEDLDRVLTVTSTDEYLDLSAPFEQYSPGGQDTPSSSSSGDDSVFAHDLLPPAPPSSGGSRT

Fer (mouse) = experiment: as above
Fes = Fes (UniProt P07332); experiment: as above
Chain of Fes (P07332 whole entry, looked up): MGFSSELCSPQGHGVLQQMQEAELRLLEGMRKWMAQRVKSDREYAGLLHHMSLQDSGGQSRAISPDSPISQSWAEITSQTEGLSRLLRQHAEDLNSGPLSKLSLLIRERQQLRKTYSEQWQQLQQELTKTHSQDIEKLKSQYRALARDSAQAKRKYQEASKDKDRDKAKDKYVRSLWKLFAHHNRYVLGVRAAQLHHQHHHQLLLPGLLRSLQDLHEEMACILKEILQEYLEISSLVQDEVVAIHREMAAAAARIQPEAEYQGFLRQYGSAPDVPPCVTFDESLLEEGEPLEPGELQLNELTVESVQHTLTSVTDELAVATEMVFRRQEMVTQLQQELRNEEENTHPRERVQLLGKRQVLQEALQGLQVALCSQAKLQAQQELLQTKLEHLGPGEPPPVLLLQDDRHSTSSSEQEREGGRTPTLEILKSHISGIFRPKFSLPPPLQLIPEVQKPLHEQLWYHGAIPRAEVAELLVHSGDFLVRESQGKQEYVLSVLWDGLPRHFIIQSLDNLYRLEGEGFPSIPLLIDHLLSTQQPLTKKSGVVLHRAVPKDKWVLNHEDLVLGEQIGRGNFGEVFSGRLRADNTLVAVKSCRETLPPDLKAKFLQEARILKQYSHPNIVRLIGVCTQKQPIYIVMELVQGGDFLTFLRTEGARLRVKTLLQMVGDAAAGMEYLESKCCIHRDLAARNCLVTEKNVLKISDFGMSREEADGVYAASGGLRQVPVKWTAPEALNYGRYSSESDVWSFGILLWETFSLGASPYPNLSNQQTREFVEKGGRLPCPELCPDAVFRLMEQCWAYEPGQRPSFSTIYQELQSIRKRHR

Fyn = Fyn (UniProt P06241); experiment: as above
Chain of Fyn (P06241 whole entry, looked up): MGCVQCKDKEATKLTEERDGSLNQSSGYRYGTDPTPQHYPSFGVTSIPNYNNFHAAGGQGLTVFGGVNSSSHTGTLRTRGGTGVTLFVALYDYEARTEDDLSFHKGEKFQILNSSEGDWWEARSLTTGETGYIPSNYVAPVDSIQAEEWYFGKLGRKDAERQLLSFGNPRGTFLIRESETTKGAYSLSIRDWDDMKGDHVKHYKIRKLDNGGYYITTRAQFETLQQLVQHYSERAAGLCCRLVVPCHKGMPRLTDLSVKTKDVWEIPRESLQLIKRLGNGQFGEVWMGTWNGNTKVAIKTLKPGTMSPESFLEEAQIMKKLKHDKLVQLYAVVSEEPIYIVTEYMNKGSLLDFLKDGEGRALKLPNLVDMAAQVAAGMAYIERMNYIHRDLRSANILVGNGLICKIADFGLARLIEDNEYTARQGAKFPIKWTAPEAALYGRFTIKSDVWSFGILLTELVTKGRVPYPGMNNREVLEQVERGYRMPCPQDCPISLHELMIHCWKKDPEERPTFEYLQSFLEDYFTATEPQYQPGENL

Hck = Hck (UniProt P08631); experiment: as above
Chain of Hck (P08631 whole entry, looked up): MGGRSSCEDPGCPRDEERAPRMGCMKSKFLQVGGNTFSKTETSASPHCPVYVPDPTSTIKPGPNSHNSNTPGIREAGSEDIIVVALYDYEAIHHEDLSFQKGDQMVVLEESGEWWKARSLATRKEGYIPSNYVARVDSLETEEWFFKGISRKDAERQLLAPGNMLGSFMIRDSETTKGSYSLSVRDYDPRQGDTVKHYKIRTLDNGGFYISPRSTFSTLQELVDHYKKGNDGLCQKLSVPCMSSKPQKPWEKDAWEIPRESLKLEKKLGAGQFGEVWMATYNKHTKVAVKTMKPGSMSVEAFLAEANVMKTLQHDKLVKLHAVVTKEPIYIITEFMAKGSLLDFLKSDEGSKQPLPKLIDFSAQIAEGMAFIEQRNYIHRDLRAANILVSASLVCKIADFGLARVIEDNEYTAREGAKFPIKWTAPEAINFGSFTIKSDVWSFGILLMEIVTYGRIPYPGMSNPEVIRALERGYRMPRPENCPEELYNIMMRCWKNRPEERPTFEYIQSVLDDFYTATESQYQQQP

Jak2 = Jak2 (UniProt O60674); experiment: as above
Chain of Jak2 (O60674 whole entry, looked up): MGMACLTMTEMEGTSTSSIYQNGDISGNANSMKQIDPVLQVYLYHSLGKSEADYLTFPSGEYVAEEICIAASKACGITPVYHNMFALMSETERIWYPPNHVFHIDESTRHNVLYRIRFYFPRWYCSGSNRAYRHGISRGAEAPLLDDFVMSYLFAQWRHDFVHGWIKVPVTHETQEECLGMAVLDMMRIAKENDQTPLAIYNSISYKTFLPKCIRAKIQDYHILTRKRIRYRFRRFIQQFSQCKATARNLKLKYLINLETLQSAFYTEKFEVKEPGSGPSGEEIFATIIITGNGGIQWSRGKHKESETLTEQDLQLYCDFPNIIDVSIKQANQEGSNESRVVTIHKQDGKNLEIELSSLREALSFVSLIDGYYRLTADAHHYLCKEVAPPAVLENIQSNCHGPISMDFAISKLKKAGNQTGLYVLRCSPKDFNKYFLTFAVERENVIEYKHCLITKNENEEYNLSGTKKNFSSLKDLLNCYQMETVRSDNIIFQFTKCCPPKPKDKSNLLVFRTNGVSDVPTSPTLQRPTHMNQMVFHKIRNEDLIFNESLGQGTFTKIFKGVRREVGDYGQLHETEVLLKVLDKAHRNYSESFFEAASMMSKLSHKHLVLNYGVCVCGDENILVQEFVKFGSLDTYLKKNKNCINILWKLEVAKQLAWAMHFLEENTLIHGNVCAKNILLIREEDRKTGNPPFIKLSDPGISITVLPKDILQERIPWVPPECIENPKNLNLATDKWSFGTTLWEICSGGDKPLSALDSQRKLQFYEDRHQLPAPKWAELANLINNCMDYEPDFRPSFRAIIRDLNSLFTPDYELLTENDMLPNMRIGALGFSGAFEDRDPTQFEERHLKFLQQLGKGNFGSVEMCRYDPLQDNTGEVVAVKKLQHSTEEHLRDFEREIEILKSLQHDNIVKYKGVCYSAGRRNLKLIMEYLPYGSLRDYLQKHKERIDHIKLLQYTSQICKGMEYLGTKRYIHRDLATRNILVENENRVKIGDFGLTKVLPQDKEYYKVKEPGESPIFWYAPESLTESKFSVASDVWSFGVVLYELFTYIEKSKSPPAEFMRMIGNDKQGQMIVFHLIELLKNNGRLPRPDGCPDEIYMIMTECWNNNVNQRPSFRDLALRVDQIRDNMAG

MERTK = MERTK (UniProt Q12866); experiment: as above
Chain of MERTK (Q12866 whole entry, looked up): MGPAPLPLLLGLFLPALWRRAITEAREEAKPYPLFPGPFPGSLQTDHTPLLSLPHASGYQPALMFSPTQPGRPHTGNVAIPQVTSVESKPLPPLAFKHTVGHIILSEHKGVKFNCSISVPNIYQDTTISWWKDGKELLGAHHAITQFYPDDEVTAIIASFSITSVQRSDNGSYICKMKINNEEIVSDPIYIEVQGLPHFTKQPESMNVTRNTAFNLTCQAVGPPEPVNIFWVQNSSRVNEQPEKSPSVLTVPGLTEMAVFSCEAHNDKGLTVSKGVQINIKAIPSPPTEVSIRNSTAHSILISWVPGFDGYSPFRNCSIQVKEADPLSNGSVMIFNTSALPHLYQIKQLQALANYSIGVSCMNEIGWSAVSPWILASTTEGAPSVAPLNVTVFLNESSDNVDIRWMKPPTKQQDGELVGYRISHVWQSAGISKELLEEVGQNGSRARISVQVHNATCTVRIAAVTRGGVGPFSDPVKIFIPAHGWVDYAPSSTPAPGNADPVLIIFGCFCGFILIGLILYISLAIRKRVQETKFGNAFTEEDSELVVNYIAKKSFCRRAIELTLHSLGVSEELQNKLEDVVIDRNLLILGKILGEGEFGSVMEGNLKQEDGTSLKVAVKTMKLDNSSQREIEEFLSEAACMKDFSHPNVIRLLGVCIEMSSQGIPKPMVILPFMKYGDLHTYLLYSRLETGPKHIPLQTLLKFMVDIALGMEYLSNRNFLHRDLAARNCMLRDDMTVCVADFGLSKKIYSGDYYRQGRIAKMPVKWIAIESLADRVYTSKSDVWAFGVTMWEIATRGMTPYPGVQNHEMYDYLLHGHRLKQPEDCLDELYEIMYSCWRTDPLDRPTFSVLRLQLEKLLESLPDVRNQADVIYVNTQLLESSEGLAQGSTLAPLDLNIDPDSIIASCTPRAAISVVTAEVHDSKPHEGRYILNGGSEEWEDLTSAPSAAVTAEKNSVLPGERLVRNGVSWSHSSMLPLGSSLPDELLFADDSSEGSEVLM

c-Abl (mouse) = experiment: as above
c-Src = experiment: as above
Grb2 SH2 = Grb2 SH2 (UniProt P62993); experiment: SH2 binding enrichment of the phosphorylated peptide, bacterial display (enrichment ratio); higher = better substrate or ligand; peptides without Tyr show the background
SHP2-C SH2 = experiment: as above
c-Src SH2 = experiment: as above
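Wherever SH2 binding enrichment of the phosphorylated peptide, bacterial display is given: peptide library displayed on the E. coli surface as eCPX fusions, selected cells deep-sequenced, score is each peptide's frequency after selection divided by its frequency in the input.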
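Wherever phosphorylation enrichment, bacterial display is given: 11-residue human phosphosite peptides and single-mutation variants displayed on the E. coli surface, counted by deep sequencing, each peptide's frequency after selection divided by its frequency in the unselected input library; frequency after pTyr selection over input frequency; kinase dosed for 20-30% of maximal phosphorylation in three min.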

Sequence	SH2 binding enrichment (Grb2 SH2)	SH2 binding enrichment (SHP2-C SH2)	SH2 binding enrichment (c-Src SH2)	phosphorylation enrichment (AncSZ)	phosphorylation enrichment (EPHB1)	phosphorylation enrichment (EPHB2)	phosphorylation enrichment (FGFR1)	phosphorylation enrichment (FGFR3)	phosphorylation enrichment (Fer (mouse))	phosphorylation enrichment (Fes)	phosphorylation enrichment (Fyn)	phosphorylation enrichment (Hck)	phosphorylation enrichment (Jak2)	phosphorylation enrichment (MERTK)	phosphorylation enrichment (c-Abl (mouse))	phosphorylation enrichment (c-Src)
EPDSLYGCGRG [ATM_Y2019_G2023R]	0.93	0.886	0.559	0.933	0.534	0.45	0.399	0.576	0.574	0.926	2.05	4.04	0.858	0.419	0.885	2.52
YRQLPYCPSVE [CTNND2_Y508_Q507P]	0.686	0.585	0.494	1.51	0.692	0.747	1.48	1.41	0.804	1.53	0.647	1.09	1.41	0.728	5.88	0.881
LNPDGYEKAYE [CPXM2_Y427]	0.93	0.729	4.86	1.12	0.696	0.816	0.633	0.789	0.365	1.53	0.797	0.489	2.41	0.364	0.773	0.478
YGGLRYGYGVL [KRTAP20-2_Y13]	1.07	1.09	0.707	0.671	0.415	0.608	0.559	0.518	0.448	0.741	1.25	1.42	0.658	0.497	0.536	1.64
GGPTFYIDTNA [ACTL6A_Y69_YF]	0.874	0.608	0.577	1.24	0.707	0.626	0.542	0.868	0.529	1.39	0.458	0.53	1.13	0.41	0.775	0.439
LPKEQYLYTKE [AFG3L2_Y614]	0.75	0.643	0.597	1.3	0.895	0.574	0.789	0.998	0.75	1.42	0.634	0.767	1.41	0.792	1.48	0.913
SGVSFYINLCQ [IGF2R_Y2025_N2020S_YF]	2.21	1.32	1.48	1.5	0.806	0.695	0.787	1.19	0.529	1.46	0.361	0.481	1.61	0.686	1.04	0.522
FLAVEYHKPHI [IDS_Y225_G224E]	1.32	0.653	0.925	0.779	0.417	0.459	0.393	0.515	0.354	0.814	0.337	0.38	1.05	0.302	1.6	0.387
YSDPSYVKQME [CDC5L_Y464]	0.8	0.608	1.05	1.1	0.392	0.57	0.985	0.716	0.409	0.817	0.434	0.593	0.557	0.578	0.537	0.473
CTLLPYYSAPV [DGKE_Y269_R273P]	0.71	0.54	1.53	2.02	2.04	2.29	1.43	1.3	2.17	1.71	0.792	1.14	1.54	4.17	1.65	1.25
GAVGHYVLAER [HFE_Y342_M339V]	0.634	0.851	2.88	0.865	0.395	0.415	0.449	1.23	0.363	0.711	0.47	0.454	0.453	0.573	0.46	0.503
EKKQTYGSCRK [LACTB_Y473_R469K]	1.23	0.838	0.867	0.533	0.415	0.356	0.395	0.488	0.351	0.685	0.37	0.391	0.484	0.366	0.581	0.43
SGIFQYNIAKF [FOXL2_Y83_I84N_YF]	1.21	1.11	0.899	0.786	0.59	0.541	0.486	0.691	0.48	1.01	0.472	0.494	0.876	0.435	0.739	0.432
GHMFAYDWISI [BEST1_Y227_L224M_YF]	1.25	1.03	1.15	1.47	1.05	0.933	3.48	2.15	13.8	2.68	0.935	1.78	0.842	7.14	0.922	1.28
VEKGSYSALRA [ABCC2_Y845_L849R]	0.823	1.04	0.555	0.43	0.348	0.296	0.356	0.396	0.338	0.551	0.34	0.351	0.551	0.325	0.438	0.314
SIKDKYVTAFY [KCNH2_Y611_L615F]	0.607	0.525	0.461	0.578	0.488	0.439	0.483	0.475	0.401	0.67	0.428	0.414	0.523	0.358	0.391	0.383
WAFNLYDINKD [KCNIP3_Y174]	0.718	0.6	0.563	1.43	1.27	1.64	0.541	0.763	1.82	1.45	1.92	2.65	1.17	1.3	0.91	1.78
NYYDTCIKTCL [IQGAP2_Y1445_Y1445C]	0.856	0.706	3.21	1.3	7.47	2.32	7.57	5.45	1.05	1.07	1.52	1.51	1.17	5.87	0.894	1.16
RAILDYIASKY [GSTA3_Y74_N73D]	1.06	0.872	0.746	0.867	0.456	0.646	0.512	0.661	0.665	0.761	0.564	0.471	0.718	0.473	0.616	0.376

The next lines start with results.

SH2 binding enrichment (Grb2 SH2)	SH2 binding enrichment (SHP2-C SH2)	SH2 binding enrichment (c-Src SH2)	Sequence	phosphorylation enrichment (AncSZ)	phosphorylation enrichment (EPHB1)	phosphorylation enrichment (EPHB2)	phosphorylation enrichment (FGFR1)	phosphorylation enrichment (FGFR3)	phosphorylation enrichment (Fer (mouse))	phosphorylation enrichment (Fes)	phosphorylation enrichment (Fyn)	phosphorylation enrichment (Hck)	phosphorylation enrichment (Jak2)	phosphorylation enrichment (MERTK)	phosphorylation enrichment (c-Abl (mouse))	phosphorylation enrichment (c-Src)
0.922	1.01	0.658	AFLGEYIPTVF [RAC2_Y32_P29L]	1.31	0.733	0.499	0.826	0.967	0.568	1.43	0.593	0.516	1.49	0.638	1.1	0.664
0.866	0.641	0.487	GEPLSHTRFSL [TFRC_Y20_Y20H]	0.599	0.449	0.36	0.424	0.435	0.448	0.828	0.398	0.478	0.742	0.424	0.637	0.456
0.747	0.507	0.476	PESIPYRKFTT [NTRK1_Y701_L700P]	0.823	0.598	0.668	0.594	0.936	0.353	0.917	0.375	0.721	0.992	0.86	0.879	0.485
2.59	1.49	0.424	LKKLEYLNLAL [LRRC6_Y70]	1.05	0.81	0.987	1.36	1.14	0.549	1.43	0.408	0.489	1.23	0.296	0.574	0.367
0.975	0.557	0.553	AKGMKYLASKK [MET_Y1194]	0.482	0.244	0.324	0.341	0.311	0.379	0.536	0.354	0.394	0.489	0.335	0.445	0.406
0.98	0.589	0.811	WEQELYSQLVY [WAS_Y102]	2.3	11.8	16	8.38	7.23	15.7	2.69	9.39	8.84	1.35	9.2	1.55	7.33
1.01	0.859	0.512	KQRSDYARELE [MYH3_Y1140]	0.636	0.38	0.435	0.331	0.481	0.358	0.789	0.417	0.393	0.596	0.38	0.625	0.362
1.11	0.889	0.633	YRAPGYREVVI [TNS2_Y673]	0.587	0.445	0.43	0.52	0.443	0.432	0.634	0.474	0.439	0.509	0.403	2.11	0.419
0.786	0.594	0.32	ADKSAYLMGVN [MYH7_Y386_L390V]	0.574	0.418	0.466	0.399	0.466	0.396	0.661	0.405	0.401	0.58	0.338	0.572	0.41
1.11	0.674	10.3	FCGFSYDDIPD [TMEM230_Y112_R108C_YF]	1.46	0.694	0.707	0.592	0.918	0.76	1.27	0.481	0.63	1.22	0.558	1.02	0.537
0.553	0.747	0.467	HEEDNYIEMIP [NWD2_Y566_L569M]	3.02	1.68	1.19	3.93	3.82	0.938	2.85	0.67	0.822	2.39	1.13	1.86	1.16
1.08	0.887	1.15	FAKSVYWENTL [NUP107_Y296_YF]	0.899	0.554	0.531	0.506	0.752	0.418	1.32	0.768	0.857	0.987	0.588	0.638	0.802
0.726	0.825	0.477	MPAVTYTPAMR [MEGF10_Y895]	0.481	0.253	0.328	0.28	0.425	0.313	0.569	0.313	0.415	0.743	0.336	0.455	0.384
0.742	0.65	0.513	ISSLRYKLLEE [TRPC6_Y896_E897K]	0.786	0.514	0.476	0.426	0.549	0.38	0.986	0.503	0.47	0.64	0.347	0.603	0.407
